Patent US7244836 (Genentech, dated 2007)

Legend:
[1] = biological target: T1, GAL4(TA)-TRAF1 co-expressed with directly expressed TRAF2 (yeast; murine, UniProt P39428 2-409; P39429 1-501, limits assumed); test: yeast three-component assay with TRAF2 (no NLS) expressed directly; growth on trp- leu- his- medium with 20 mM 3-aminotriazole
T1 construct: also called GAL4(TA)-TRAF1 + TRAF2; pPC86TRAF1 with pPCTRAF2
T1 sequence 1: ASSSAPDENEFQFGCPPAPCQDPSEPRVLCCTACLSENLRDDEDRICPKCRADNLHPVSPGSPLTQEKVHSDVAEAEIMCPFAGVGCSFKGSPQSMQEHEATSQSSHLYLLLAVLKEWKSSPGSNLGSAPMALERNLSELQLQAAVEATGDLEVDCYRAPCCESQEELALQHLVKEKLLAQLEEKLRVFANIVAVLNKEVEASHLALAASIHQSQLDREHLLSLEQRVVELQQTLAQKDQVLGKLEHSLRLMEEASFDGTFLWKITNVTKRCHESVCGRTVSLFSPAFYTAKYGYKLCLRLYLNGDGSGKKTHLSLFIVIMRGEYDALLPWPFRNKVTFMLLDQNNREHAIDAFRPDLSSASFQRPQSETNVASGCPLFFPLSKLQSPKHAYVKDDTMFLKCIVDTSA
T1 sequence 2: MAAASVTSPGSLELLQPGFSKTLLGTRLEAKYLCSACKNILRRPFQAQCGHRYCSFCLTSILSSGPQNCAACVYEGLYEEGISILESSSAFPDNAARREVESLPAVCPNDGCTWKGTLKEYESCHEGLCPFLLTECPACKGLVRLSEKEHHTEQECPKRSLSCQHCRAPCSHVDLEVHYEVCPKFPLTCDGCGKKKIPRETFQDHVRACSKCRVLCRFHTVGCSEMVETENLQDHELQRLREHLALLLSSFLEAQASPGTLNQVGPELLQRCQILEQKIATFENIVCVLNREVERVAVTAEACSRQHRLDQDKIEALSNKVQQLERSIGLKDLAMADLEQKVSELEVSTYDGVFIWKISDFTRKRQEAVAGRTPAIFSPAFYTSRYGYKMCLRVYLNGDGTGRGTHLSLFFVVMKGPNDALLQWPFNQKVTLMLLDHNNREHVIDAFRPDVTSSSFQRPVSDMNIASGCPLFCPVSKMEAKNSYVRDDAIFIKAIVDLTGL
Procedure: HF7c cells were sequentially transformed with plasmids (see text) encoding the indicated GAL4 DNA-binding domain (DB) fusion proteins, the GAL4 transcriptional activation domain (TA) TRAF1 fusion protein, and TRAF2 or TRAF2 fused to the simian virus 40 large tumor antigen nuclear localization signal (NLS). The final transformation mixtures were plated onto synthetic dextrose plates lacking trp, leu, his and containing 20 mM 3-aminotriazole. Plus signs indicate growth of transformed yeast colonies on the respective plates. *See Table 2.

GST-TRAF2 fusion protein = biological target: T2, GST-TRAF2 fusion protein (murine, UniProt P39429 1-501); test: GST-TRAF2 beads incubated with 293/TNF-R2 cell lysate; SDS-PAGE and Western blot with anti-hTNF-R2 antibody
T2 construct: Expressed in E. coli in the presence of 1 mM ZnCl2; also called GST-TRAF2 fusion protein beads; not shown: glutathione S-transferase as encoded by vector pGEX-2TK, with the vector's linker
T2 sequence: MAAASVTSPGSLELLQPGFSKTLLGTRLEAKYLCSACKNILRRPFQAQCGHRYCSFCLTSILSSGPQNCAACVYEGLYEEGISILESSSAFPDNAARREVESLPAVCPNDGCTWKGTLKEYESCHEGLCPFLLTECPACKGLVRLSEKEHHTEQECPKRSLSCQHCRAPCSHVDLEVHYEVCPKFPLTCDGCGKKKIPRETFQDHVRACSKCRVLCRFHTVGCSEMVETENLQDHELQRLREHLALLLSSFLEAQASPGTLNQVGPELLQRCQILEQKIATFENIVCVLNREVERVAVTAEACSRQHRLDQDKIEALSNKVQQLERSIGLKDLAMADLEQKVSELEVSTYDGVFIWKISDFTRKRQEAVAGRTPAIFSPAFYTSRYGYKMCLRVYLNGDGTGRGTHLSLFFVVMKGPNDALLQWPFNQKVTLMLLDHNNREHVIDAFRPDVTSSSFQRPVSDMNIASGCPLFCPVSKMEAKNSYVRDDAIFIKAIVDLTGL
Procedure: FIG. 16. […] Reactions were analyzed by SDS-PAGE and Western blot analysis using anti-human TNF-R1 monoclonal antibody 986 (0.5 μg/ml) and anti-human TNF-R2 monoclonal antibody 1036 (0.5 μg/ml). An arrow indicates the 75-80 kd hTNF-R2 band that is coprecipitated specifically with the GST-TRAF2 fusion protein. Molecular weight markers are indicated on the right in kd.
An expression vector encoding a GST-TRAF2 fusion protein was constructed. The TRAF2 coding region was amplified from pPC86TRAF2 by PCR with Pfu DNA polymerase as described above using the oligonucleotide primers 5'-[…] TTGT-3' (SEQ. ID. NO: 53) and 5'-[…]-3' (SEQ. ID. NO: 54). The amplified 1.6 kb DNA fragment was blunt-ended using *E. coli* DNA polymerase I, digested with BamHI and cloned into BamHI/SmaI-digested pGEX-2TK vector. The GST-TRAF2 fusion protein was expressed in the presence of 1 mM ZnCL_2 and purified as described above. […] Primary antibodies directed against the extracellular domains of hTNF-R2 and hTNF-R1 (as a control) were used at a concentration of 0.5 µg/ml and the secondary sheep anti-mouse horseradish peroxidase conjugate (Amersham) at a dilution of 1:6000.

[2] = biological target: T3, TNF Receptor Associated Factor 1, purified from CT6 cells (murine, UniProt P39428 1-409, N-terminally blocked (so in the source); nature of the block not stated)); test: band eluted specifically from the GST-hTNF-R2icd affinity column and identified by peptide sequencing; association may be indirect (through TRAF2)
T3 construct: also called TRAF1; protein band at 45-50 kd
T3 sequence: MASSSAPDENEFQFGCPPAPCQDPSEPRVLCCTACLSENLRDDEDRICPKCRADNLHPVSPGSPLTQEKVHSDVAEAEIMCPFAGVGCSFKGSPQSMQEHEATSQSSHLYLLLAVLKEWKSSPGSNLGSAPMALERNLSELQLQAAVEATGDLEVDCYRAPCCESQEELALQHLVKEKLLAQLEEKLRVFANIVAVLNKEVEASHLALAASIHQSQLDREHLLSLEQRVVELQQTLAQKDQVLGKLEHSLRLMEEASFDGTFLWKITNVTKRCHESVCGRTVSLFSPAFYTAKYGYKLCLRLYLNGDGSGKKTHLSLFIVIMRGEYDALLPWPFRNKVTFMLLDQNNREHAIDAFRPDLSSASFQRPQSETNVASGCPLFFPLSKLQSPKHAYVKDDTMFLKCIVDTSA
Procedure: For large scale purification of hTNF-R2icd associated factors 60 l of CT6 cells (3×10^10 cells) were harvested and washed twice with cold PBS. All subsequent operations were carried out at 4° C. The cells were lysed by adding 120 ml of 0.1% NP40 lysis buffer containing 100 mM NaCl and rocked gently for 30 min. Insoluble material was removed by centrifugation for 10 min at 10,000×g. The supernatant was then centrifuged at 100,000×g for 1 hr and dialyzed against lysis buffer containing 500 mM NaCl. All subsequent purification steps were carried out in lysis buffer containing 500 mM NaCl. The cell lysate was passed through a 15 ml glutathione-agarose GST-hTNF-R2icd(-37) fusion protein preabsorption column. The flow-through was applied to a 0.3 ml Affigel10/15 GST-hTNF-R2icd fusion protein affinity column. For control, the lysate was run through a similar Affigel10/15 GST-hTNF-R2icd(-37) fusion protein affinity column in parallel. After extensive washing, proteins bound to the resins were eluted with five column volumes of ImmunoPure Gentle Ag1Ab Elution Buffer (Pierce) containing, 0.1 M DTT, precipitated with Methanol/Chloroform and resuspended in SDS sample buffer containing 5% SDS. One tenth of the material was separated by SDS-PAGE under reducing conditions and visualized by silver staining (FIG. 9).

B1: GAL4 DNA-binding domain fused to the intracellular domain of the murine TNF-R2 (other, yeast;murine, UniProt P04386 1-147, looked up)
chain: MKLLSSIEQACDICRLKKLKCSKEKPKCAKCLKNNWECRYSPKTKRSPLTRAHLTEVESRLERLEQLFLLIFPREDLDMILKMDSLQDIKALLTGLFVQDNVNKDAVTDRLASVETDMPLTLRQHRISATSSSEESSNKGQRQLTVSKKKPSCLQRDAKVPHVPDEKSQDAVGLEQQHLLTTAPSSSSSSLESSASAGDRRAPPGGHPQARVMAEAQGFQEARASSRISDSSHGSHGTHVNVTCIVNVCSSSDHSSQCSSQASATVGDPDAKPSASPKDEQVPFSQEECPSQSPCETTETLQSHEKPLPLGVPDMGMKPSQAGWFDQIAVKVA
notes: also called GAL4(DB)-mTNF-R2icd; pPC97-mTNF-R2icd
Question: Does B1 bind [1]?
Answer: binds

B2: GAL4 DNA-binding domain fused to the intracellular domain of human TNF-R2 (other, yeast;human, UniProt P04386 1-147, looked up)
chain: MKLLSSIEQACDICRLKKLKCSKEKPKCAKCLKNNWECRYSPKTKRSPLTRAHLTEVESRLERLEQLFLLIFPREDLDMILKMDSLQDIKALLTGLFVQDNVNKDAVTDRLASVETDMPLTLRQHRISATSSSEESSNKGQRQLTVSKKKPLCLQREAKVPHLPADKARGTQGPEQQHLLITAPSSSSSSLESSASALDRRAPTRNQPQAPGVEASGAGEARASTGSSDSSPGGHGTQVNVTCIVNVCSSSDHSSQCSSQASSTMGDTDSSPSESPKDEQVPFSKEECAFRSQLETPETLLGSTEEKPLPLGVPDAGMKPS
notes: also called GAL4(DB)-hTNF-R2icd; pPC97-hTNF-R2icd
Question: Does B2 bind [1]?
Answer: binds

B3: human type 2 TNF receptor, wild type full length (receptor, UniProt P20333 23-461, looked up)
chain: LPAQVAFTPYAPEPGSTCRLREYYDQTAQMCCSKCSPGQHAKVFCTKTSDTVCDSCEDSTYTQLWNWVPECLSCGSRCSSDQVETQACTREQNRICTCRPGWYCALSKQEGCRLCAPLRKCRPGFGVARPGTETSDVVCKPCAPGTFSNTTSSTDICRPHQICNVVAIPGNASMDAVCTSTSPTRSMAPGAVHLPQPVSTRSQHTQPTPEPSTAPSTSFLLPMGPSPPAEGSTGDFALPVGLIVGVTALGLLIIGVVNCVIMTQVKKKPLCLQREAKVPHLPADKARGTQGPEQQHLLITAPSSSSSSLESSASALDRRAPTRNQPQAPGVEASGAGEARASTGSSDSSPGGHGTQVNVTCIVNVCSSSDHSSQCSSQASSTMGDTDSSPSESPKDEQVPFSKEECAFRSQLETPETLLGSTEEKPLPLGVPDAGMKPS
notes: whole, on cells; Whole receptor made by transfected cells, assayed after detergent lysis, not on intact cells; also called hTNF-R2; 75-80 kd hTNF-R2
Question: Does B3 bind (GST-TRAF2 fusion protein)?
Answer: binds

B4: GST-hTNF-R2icd fusion protein (other, human, UniProt P20333 288-461, looked up)
chain: KKKPLCLQREAKVPHLPADKARGTQGPEQQHLLITAPSSSSSSLESSASALDRRAPTRNQPQAPGVEASGAGEARASTGSSDSSPGGHGTQVNVTCIVNVCSSSDHSSQCSSQASSTMGDTDSSPSESPKDEQVPFSKEECAFRSQLETPETLLGSTEEKPLPLGVPDAGMKPS
notes: domain: intracellular domain; Expressed in E. coli; also called pGST-hTNF-R2icd; wild type (wt) GST-hTNF-R2icd; not shown: glutathione S-transferase as encoded by vector pGEX-2TK (Pharmacia), with the vector's linker up to the BamHI site
Question: Does B4 bind [2]?
Answer: binds
